# Measurements taken from article PMC3501490, “An Investigation of Hierachical Protein Recruitment to the Inhibitory Platelet Receptor, G6B-b” (PLoS ONE, 2012).
# B1: SHP-2 tandem SH2, Q06124 (protein)
# chain: WFHPNITGVEAENLLLTRGVDGSFLARPSKSNPGDFTLSVRRNGAVTHIKIQNTGDYYDLYGGEKFATLAELVQYYMEHHGQLKEKNGDVIELKYPLNCADPTSERWFHGHLSGKEAEKLLTEKGKHGSFLVRESQSHPGDFVLSVRTGDDKGESNDGKSKVTHVMIRCQELKYDVGGGERFDSLTDLVEHYKKNPMVETLGTVLQLKQPL
# Target: G6B-b dual phosphopeptide pY211/pY237 (Homo sapiens), O95866
# Assay: SPR
# G6B-b dual phosphopeptide pY211/pY237 (Homo sapiens), O95866, sequence (O95866 206-241): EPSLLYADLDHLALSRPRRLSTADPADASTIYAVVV
binder,measurement,value
B1,Kd,0.48 nM
